In patent US20210032365A1 (Chugai, published 2021):

T1: human C1s (human, UniProt P09871 16-688)
T1 construct: also called hC1s; serum-derived human C1s (CompTech)
T1 sequence: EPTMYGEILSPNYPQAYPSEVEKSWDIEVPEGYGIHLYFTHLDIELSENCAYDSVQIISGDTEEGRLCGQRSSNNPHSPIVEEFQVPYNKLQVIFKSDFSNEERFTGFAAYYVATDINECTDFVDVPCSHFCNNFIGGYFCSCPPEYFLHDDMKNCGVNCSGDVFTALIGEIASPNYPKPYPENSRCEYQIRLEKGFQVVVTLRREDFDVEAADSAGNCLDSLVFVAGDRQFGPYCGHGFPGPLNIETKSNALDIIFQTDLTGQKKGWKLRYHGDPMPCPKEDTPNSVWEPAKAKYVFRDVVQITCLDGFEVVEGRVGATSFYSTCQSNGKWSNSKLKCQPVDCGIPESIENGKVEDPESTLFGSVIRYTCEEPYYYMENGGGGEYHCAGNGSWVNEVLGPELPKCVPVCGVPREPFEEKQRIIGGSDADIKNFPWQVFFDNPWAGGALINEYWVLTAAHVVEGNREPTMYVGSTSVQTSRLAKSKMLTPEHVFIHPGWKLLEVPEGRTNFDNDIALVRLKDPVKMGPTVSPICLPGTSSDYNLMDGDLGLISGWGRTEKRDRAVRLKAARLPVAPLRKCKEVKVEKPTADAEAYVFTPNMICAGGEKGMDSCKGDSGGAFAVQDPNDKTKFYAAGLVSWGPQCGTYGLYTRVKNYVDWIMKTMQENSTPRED


Assays:
human C1s [1] = target: T1, human C1s; assay: SPR, Ab captured; pH 5.8, 3 uM Ca
Method: (§1) All variants were transiently expressed and purified by the method described above. The binding affinity of each histidine-substituted variant at pH 7.4 and pH 5.8 was determined at 37 degrees C. using Biacore T200 instrument (GE Healthcare). Recombinant Protein A/G (Pierce) was immobilized onto all flow cells of a CM4 sensor chip using an amine coupling kit (GE Healthcare). Antibodies and analytes were prepared in 7(+) buffer (20 mM ACES, 150 mM NaCl, 1.2 mM CaCl2, 0.05% Tween 20, 0.005% NaN3, pH 7.4), 5(+) buffer (20 mM ACES, 150 mM NaCl, 1.2 mM CaCl2, 0.05% Tween 20, 0.005% NaN3, pH 5.8), or 5(−) buffer (20 mM ACES, 150 mM NaCl, 3 micro M CaCl2, 0.05% Tween 20, 0.005% NaN3, pH 5.8). Each antibody was captured onto the sensor surface by protein A/G. Antibody capture levels were aimed at 200 resonance unit (RU). Serum-derived human C1s (CompTech) or recombinant C1s prepared in EXAMPLE 1 was injected at 50 nM, followed by dissociation. The sensor surface was regenerated in each cycle with 10 mM Glycine-HCl, pH 1.5. […] The ratio of KD 5.8+ to KD 7.4+(“KD 5+/7+”) and that of KD 5.8− to KD 7.4+(“KD 5−/7+”) were calculated. When the KD 5+/7+ or KD 5−/7+ of a variant is larger than that of the parent antibody IPN009VH2-SG4GK/IPN009VK3-SK1, that variant is considered to be “pH”- or “pH and Ca”-dependent, respectively. When binding response in 5(+) buffer and/or in 5(−) buffer of a variant is much lower than that of IPN09VH2/IPN009VK3, that variant is also considered as “pH”- and/or “pH and Ca”-dependent. Therefore, such mutations are effective to generate “pH”- and/or “pH and Ca”-dependent antibody. To further enhance “pH” and/or “pH and Ca” dependency, a combination of histidine mutations was conducted. Antibodies with combinations of histidine mutations were evaluated using Biacore by the method described above.

human C1s [2] = target: T1, human C1s; assay: SPR, Ab captured; pH 5.8, 1.2 mM Ca
Method: as §1

human C1s [3] = target: T1, human C1s; assay: SPR, Ab captured; pH 7.4, 1.2 mM Ca
Method: as §1

human C1s [4] = target: T1, human C1s; assay: SPR; KD pH 5.8 3 uM Ca / KD pH 7.4 1.2 mM Ca
Method: as §1

human C1s [5] = target: T1, human C1s; assay: SPR; KD pH 5.8 1.2 mM Ca / KD pH 7.4 1.2 mM Ca
Method: as §1

Binder	Kd (human C1s [1])	koff (human C1s [1])	kon (human C1s [1])	Kd (human C1s [2])	koff (human C1s [2])	kon (human C1s [2])	Kd (human C1s [3])	koff (human C1s [3])	kon (human C1s [3])	KD 5(-)/7(+) (human C1s [4])	KD 5(+)/7(+) (human C1s [5])
C1_IPN92H0033-SG4GK/IPN009VK3-SK1 (antibody, human IgG4 S228P, kappa, VH = IPN009VH2 with Y99H (Kabat); also called IPN92H0033/IPN009VK3) heavy: not shown light: QIVLTQSPATLSLSPGERATLSCTASSSVSSSYLHWYQQKPGKAPKLWIYSTSNLASGVPSRFSGSGSGTDYTLTISSLQPEDFATYYCHQYYRLPPITFGQGTKLEIKRTVAAPSVFIFPPSDEQLKSGTASVVCLLNNFYPREAKVQWKVDNALQSGNSQESVTEQDSKDSTYSLSSTLTLSKADYEKHKVYACEVTHQGLSSPVTKSFNRGEC		0.00635 s⁻¹	664000 M⁻¹ s⁻¹		0.000372 s⁻¹	722000 M⁻¹ s⁻¹		0.00026 s⁻¹	328000 M⁻¹ s⁻¹	12.1	0.7
C1_IPN009VH2-SG4GK/IPN93L0024-SK1 (antibody, human IgG4 S228P, kappa, VL = IPN009VK3 with P95H (Kabat); also called IPN009VH2/IPN93L0024) heavy: not shown light: QIVLTQSPATLSLSPGERATLSCTASSSVSSSYLHWYQQKPGKAPKLWIYSTSNLASGVPSRFSGSGSGTDYTLTISSLQPEDFATYYCHQYYRLHPITFGQGTKLEIKRTVAAPSVFIFPPSDEQLKSGTASVVCLLNNFYPREAKVQWKVDNALQSGNSQESVTEQDSKDSTYSLSSTLTLSKADYEKHKVYACEVTHQGLSSPVTKSFNRGEC		0.132 s⁻¹	5.92e+06 M⁻¹ s⁻¹		0.00149 s⁻¹	384000 M⁻¹ s⁻¹		0.000574 s⁻¹	233000 M⁻¹ s⁻¹	9.1	1.6

Further lines, results first:

Kd (human C1s [1])	koff (human C1s [1])	kon (human C1s [1])	Kd (human C1s [2])	koff (human C1s [2])	kon (human C1s [2])	Kd (human C1s [3])	koff (human C1s [3])	kon (human C1s [3])	KD 5(-)/7(+) (human C1s [4])	KD 5(+)/7(+) (human C1s [5])	Binder
13.8 nM	0.092 s⁻¹	6.67e+06 M⁻¹ s⁻¹	1.83 nM	0.00131 s⁻¹	716000 M⁻¹ s⁻¹	2.18 nM	0.000725 s⁻¹	332000 M⁻¹ s⁻¹	6.3	0.8	C1_IPN009VH2-SG4GK/IPN93L0023-SK1 (antibody, human IgG4 S228P, kappa, name in Kabat numbering, also called IPN009VH2/IPN93L0023) heavy: not shown light: QIVLTQSPATLSLSPGERATLSCTASSSVSSSYLHWYQQKPGKAPKLWIYSTSNLASGVPSRFSGSGSGTDYTLTISSLQPEDFATYYCHQYYRHPPITFGQGTKLEIKRTVAAPSVFIFPPSDEQLKSGTASVVCLLNNFYPREAKVQWKVDNALQSGNSQESVTEQDSKDSTYSLSSTLTLSKADYEKHKVYACEVTHQGLSSPVTKSFNRGEC
2.58 nM	0.00171 s⁻¹	665000 M⁻¹ s⁻¹	0.222 nM	0.000162 s⁻¹	729000 M⁻¹ s⁻¹	0.549 nM	0.000236 s⁻¹	430000 M⁻¹ s⁻¹	4.7	0.4	C1_IPN92H0026-SG4GK/IPN009VK3-SK1 (antibody, human IgG4 S228P, kappa, name in Kabat numbering, V domains shown, also called IPN92H0026/IPN009VK3) VH: EVMLVESGGGLVKPGGSLRLSCAASGFTFSNYAMSWVRQAPGKGLEWVATISSGGSHTYYLDSVKHRFTISRDNSKDTLYLQMNSLRAEDTALYYCARLFTGYAMDYWGQGTLVTVSS VL: QIVLTQSPATLSLSPGERATLSCTASSSVSSSYLHWYQQKPGKAPKLWIYSTSNLASGVPSRFSGSGSGTDYTLTISSLQPEDFATYYCHQYYRLPPITFGQGTKLEIKR
